± gives the standard deviation of the averaged measurements.
Test: total protein half-life in vivo (active degradation + dilution); higher = more stable protein
[1] = E. coli NCM3722 delta-clpP delta-lon delta-hslV, growth: N-lim chemostat, doubling time 6 h
[2] = E. coli NCM3722 delta-clpP, growth: N-lim chemostat, doubling time 6 h
[3] = E. coli NCM3722 delta-hslV, growth: N-lim chemostat, doubling time 6 h
[4] = E. coli NCM3722 delta-lon, growth: N-lim chemostat, doubling time 6 h
[5] = E. coli NCM3722 delta-smpB, growth: N-lim chemostat, doubling time 6 h
[6] = wild type E. coli NCM3722, growth: C-lim chemostat, doubling time 3 h
[7] = wild type E. coli NCM3722, growth: C-lim chemostat, doubling time 6 h
[8] = wild type E. coli NCM3722, growth: C-lim chemostat, doubling time 12 h
[9] = wild type E. coli NCM3722, growth: N-lim chemostat, doubling time 6 h
[10] = wild type E. coli NCM3722, growth: N-lim chemostat, doubling time 12 h
[11] = wild type E. coli NCM3722, growth: P-lim chemostat, doubling time 6 h
[12] = wild type E. coli NCM3722, growth: P-lim chemostat, doubling time 12 h

Sequence | total protein half-life in vivo [1] [h] | total protein half-life in vivo [2] [h] | total protein half-life in vivo [3] [h] | total protein half-life in vivo [4] [h] | total protein half-life in vivo [5] [h] | total protein half-life in vivo [6] [h] | total protein half-life in vivo [7] [h] | total protein half-life in vivo [8] [h] | total protein half-life in vivo [9] [h] | total protein half-life in vivo [10] [h] | total protein half-life in vivo [11] [h] | total protein half-life in vivo [12] [h]
MTEIVADKTVEVVKNAIETADGALDLYNKYLDQVIPWQTFDETIKELSRFKQEYSQAASVLVGDIKTLLMDSQDKYFEATQTVYEWCGVATQLLAAYILLFDEYNEKKASAQKDILIKVLDDGITKLNEAQKSLLVSSQSFNNASGKLLALDSQLTNDFSEKSSYFQSQVDKIRKEAYAGAAAGVVAGPFGLIISYSIAAGVVEGKLIPELKNKLKSVQNFFTTLSNTVKQANKDIDAAKLKLTTEIAAIGEIKTETETTRFYVDYDDLMLSLLKEAAKKMINTCNEYQKRHGKKTLFEVPEV | 4.51 ± 0.82 | 4.37 ± 0.14 | 3.54 ± 0.068 | 3.77 ± 0.13 | 2.84 ± 0.25 | 3.15 ± 0.65 | 4.71 ± 0.94 | 6.71 ± 1.1 | 3.2 ± 0.039 | 5.29 ± 0.62 | 4.11 ± 0.63 | 7.49 ± 0.36
MTEKVKQHAAPVTGSDEIDIGRLVGTVIEARWWVIGITTVFALCAVVYTFFATPIYSADALVQIEQNSGNSLVQDIGSALANKPPASDAEIQLIRSRLVLGKTVDDLDLDIAVSKNTFPIFGAGWDRLMGRQNETVKVTTFNRPKEMADQVFTLNVLDNKNYTLSSDGGFSARGQAGQMLKKEGVTLMVEAIHASPGSEFTVTKYSTLGMINQLQNSLTVTENGKDAGVLSLTYTGEDREQIRDILNSIARNYQEQNIERKSAEASKSLAFLAQQLPEVRSRLDVAENKLNAFRQDKDSVDLPLEAKAVLDSMVNIDAQLNELTFKEAEISKLYTKVHPAYRTLLEKRQALEDEKAKLNGRVTAMPKTQQEIVRLTRDVESGQQVYMQLLNKEQELKITEASTVGDVRIVDPAITQPGVLKPKKGLIILGAIILGLMLSIVGVLLRSLFNRGIESPQVLEEHGISVYASIPLSEWQKARDSVKTIKGIKRYKQSQLLAVGNPTDLAIEAIRSLRTSLHFAMMQAQNNVLMMTGVSPSIGKTFVCANLAAVISQTNKRVLLIDCDMRKGYTHELLGTNNVNGLSEILIGQGDITTAAKPTSIAKFDLIPRGQVPPNPSELLMSERFAELVNWASKNYDLVLIDTPPILAVTDAAIVGRHVGTTLMVARYAVNTLKEVETSLSRFEQNGIPVKGVILNSIFRRASAYQDYGYYEYEYKSDAK | – | – | – | 4.27 ± 0.44 | 2.13 ± 0.52 | 2.75 | – | – | – | – | – | –
MTELKNDRYLRALLRQPVDVTPVWMMRQAGRYLPEYKATRAQAGDFMSLCKNAELACEVTLQPLRRYPLDAAILFSDILTVPDAMGLGLYFEAGEGPRFTSPVTCKADVDKLPIPDPEDELGYVMNAVRTIRRELKGEVPLIGFSGSPWTLATYMVEGGSSKAFTVIKKMMYADPQALHALLDKLAKSVTLYLNAQIKAGAQAVMIFDTWGGVLTGRDYQQFSLYYMHKIVDGLLRENDGRRVPVTLFTKGGGQWLEAMAETGCDALGLDWTTDIADARRRVGNKVALQGNMDPSMLYAPPARIEEEVATILAGFGHGEGHVFNLGHGIHQDVPPEHAGVFVEAVHRLSEQYHR | 4.03 ± 0.26 | 3.74 ± 0.17 | 3.83 ± 0.17 | 4.15 ± 0.56 | 3.93 ± 0.27 | 2.94 ± 0.43 | 5.94 ± 0.61 | 8.76 ± 0.76 | 4.31 ± 0.093 | 6.62 ± 0.27 | 5.88 ± 0.075 | 10.4 ± 0.69
MTELPIDENTPRILIVEDEPKLGQLLIDYLRAASYAPTLISHGDQVLPYVRQTPPDLILLDLMLPGTDGLTLCREIRRFSDIPIVMVTAKIEEIDRLLGLEIGADDYICKPYSPREVVARVKTILRRCKPQRELQQQDAESPLIIDEGRFQASWRGKMLDLTPAEFRLLKTLSHEPGKVFSREQLLNHLYDDYRVVTDRTIDSHIKNLRRKLESLDAEQSFIRAVYGVGYRWEADACRIV | 4.22 ± 0.48 | 4.1 ± 0.35 | 4.1 ± 0.073 | 4.58 ± 0.1 | 4.01 ± 0.14 | 2.89 ± 0.092 | 5.54 ± 0.16 | 11.7 ± 2.5 | 4.05 ± 0.21 | 6.62 ± 0.32 | 5.58 ± 0.26 | 13.5 ± 0.37
MTEQATTTDELAFTRPYGEQEKQILTAEAVEFLTELVTHFTPQRNKLLAARIQQQQDIDNGTLPDFISETASIRDADWKIRGIPADLEDRRVEITGPVERKMVINALNANVKVFMADFEDSLAPDWNKVIDGQINLRDAVNGTISYTNEAGKIYQLKPNPAVLICRVRGLHLPEKHVTWRGEAIPGSLFDFALYFFHNYQALLAKGSGPYFYLPKTQSWQEAAWWSEVFSYAEDRFNLPRGTIKATLLIETLPAVFQMDEILHALRDHIVGLNCGRWDYIFSYIKTLKNYPDRVLPDRQAVTMDKPFLNAYSRLLIKTCHKRGAFAMGGMAAFIPSKDEEHNNQVLNKVKADKSLEANNGHDGTWIAHPGLADTAMAVFNDILGSRKNQLEVMREQDAPITADQLLAPCDGERTEEGMRANIRVAVQYIEAWISGNGCVPIYGLMEDAATAEISRTSIWQWIHHQKTLSNGKPVTKALFRQMLGEEMKVIASELGEERFSQGRFDDAARLMEQITTSDELIDFLTLPGYRLLA | 5.7 ± 1.2 | 4.82 ± 0.056 | 1.75 ± 0.022 | 2.2 ± 0.35 | 1.76 ± 0.22 | 2.25 ± 0.18 | 3.17 ± 0.25 | 4.18 ± 0.32 | 2.5 ± 1 | 2.59 ± 0.19 | 2.73 ± 0.2 | 5.08 ± 0.14
MTEVRRRGRPGQAEPVAQKGAQALERGIAILQYLEKSGGSSSVSDISLNLDLPLSTTFRLLKVLQAADFVYQDSQLGWWHIGLGVFNVGAAYIHNRDVLSVAGPFMRRLMLLSGETVNVAIRNGNEAVLIGQLECKSMVRMCAPLGSRLPLHASGAGKALLYPLAEEELMSIILQTGLQQFTPTTLVDMPTLLKDLEQARELGYTVDKEEHVVGLNCIASAIYDDVGSVVAAISISGPSSRLTEDRFVSQGELVRDTARDISTALGLKAHP [P0ACN4] | – | 5.13 ± 0.62 | 5.12 ± 0.34 | 4.42 ± 0.94 | 4.4 ± 0.4 | 2.79 ± 0.13 | 5.64 ± 0.18 | 11 ± 0.97 | 4.91 ± 0.23 | 9.46 ± 0.2 | 5.44 ± 0.41 | 11.1 ± 0.81
